Measurements: patent US20130227716A1 (University of Washington, published 2013)

B1: full-length JAZ1 (other)
chain: MSSSMECSEFVGSRRFTGKKPSFSQTCSRLSQYLKENGSFGDLSLGMACKPDVNGTLGNSRQPTTTMSLFPCEASNMDSMVQDVKPTNLFPRQPSFSSSSSSLPKEDVLKMTQTTRSVKPESQTAPLTIFYAGQVIVFNDFSAEKAKEVINLASKGTANSLAKNQTDIRSNIATIANQVPHPRKTTTQEPIQSSPTPLTELPIARRASLHRFLEKRKDRVTSKAPYQLCDPAKASSNPQTTGNMSWLGLAAEI
B2: JAZ1 + 5 extension (peptide)
peptide: ELPIARRASLHRFLEKRKDRV
notes: also called JAZ1 +5 extension peptide; JAZ1 degron +5 peptide
B3: ASK1 (other, Arabidopsis thaliana, UniProt Q39255 1-160, looked up)
chain: MSAKKIVLKSSDGESFEVEEAVALESQTIAHMVEDDCVDNGVPLPNVTSKILAKVIEYCKRHVEAAASKAEAVEGAATSDDDLKAWDADFMKIDQATLFELILAANYLNIKNLLDLTCQTVADMIKGKTPEEIRTTFNIKNDFTPEEEEEVRRENQWAFE
notes: mature
B4: JAZ1 + 6 extension + PY motif (peptide)
peptide: ELPIARRASLHRFLEKRKDRVTSKAPY
notes: also called JAZ1-extension +5+PY; JAZ1 +5 extension with the six C-terminal residues added back on

Legend:
[1] = molecular target: COI1/ASK1 complex (full-length Arabidopsis thaliana COI1 co-expressed with ASK1) (Arabidopsis thaliana) (UniProt Q39255); assay: cell-based or functional assay
[2] = molecular target: T1, COI1/ASK1 complex (full-length Arabidopsis thaliana COI1 co-expressed with ASK1) (Arabidopsis thaliana, UniProt Q39255 1-160); assay: cell-based or functional assay
T1 sequence 1: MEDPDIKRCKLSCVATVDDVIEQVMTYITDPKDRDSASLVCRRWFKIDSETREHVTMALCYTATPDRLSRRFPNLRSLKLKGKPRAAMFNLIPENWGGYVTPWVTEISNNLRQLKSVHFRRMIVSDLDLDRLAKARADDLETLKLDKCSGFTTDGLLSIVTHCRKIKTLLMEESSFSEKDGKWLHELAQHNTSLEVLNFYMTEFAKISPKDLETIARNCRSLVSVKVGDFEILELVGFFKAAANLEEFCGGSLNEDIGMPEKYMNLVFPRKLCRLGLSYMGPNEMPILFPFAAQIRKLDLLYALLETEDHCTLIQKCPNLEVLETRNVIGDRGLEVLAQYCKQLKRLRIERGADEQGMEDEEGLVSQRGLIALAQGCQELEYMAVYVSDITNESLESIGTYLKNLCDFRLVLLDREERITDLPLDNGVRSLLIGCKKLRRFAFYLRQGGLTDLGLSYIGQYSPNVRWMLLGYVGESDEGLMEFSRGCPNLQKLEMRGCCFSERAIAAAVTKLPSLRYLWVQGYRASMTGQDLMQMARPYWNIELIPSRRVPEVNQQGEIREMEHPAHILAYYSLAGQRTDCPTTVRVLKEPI
T1 sequence 2: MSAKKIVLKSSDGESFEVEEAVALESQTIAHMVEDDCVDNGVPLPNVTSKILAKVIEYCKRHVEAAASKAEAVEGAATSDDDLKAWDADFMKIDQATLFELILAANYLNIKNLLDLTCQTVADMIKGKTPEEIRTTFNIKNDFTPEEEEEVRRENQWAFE

[3] = molecular target: T1, COI1/ASK1 complex (full-length …); assay: saturation radioligand binding (3H-coronatine) with COI1/ASK1 and the synthetic peptide
[4] = molecular target: T2, Arabidopsis thaliana COI1 (Arabidopsis thaliana, UniProt O04197 1-592); assay: crystal structure
T2 construct: also called wild-type COI1
T2 sequence: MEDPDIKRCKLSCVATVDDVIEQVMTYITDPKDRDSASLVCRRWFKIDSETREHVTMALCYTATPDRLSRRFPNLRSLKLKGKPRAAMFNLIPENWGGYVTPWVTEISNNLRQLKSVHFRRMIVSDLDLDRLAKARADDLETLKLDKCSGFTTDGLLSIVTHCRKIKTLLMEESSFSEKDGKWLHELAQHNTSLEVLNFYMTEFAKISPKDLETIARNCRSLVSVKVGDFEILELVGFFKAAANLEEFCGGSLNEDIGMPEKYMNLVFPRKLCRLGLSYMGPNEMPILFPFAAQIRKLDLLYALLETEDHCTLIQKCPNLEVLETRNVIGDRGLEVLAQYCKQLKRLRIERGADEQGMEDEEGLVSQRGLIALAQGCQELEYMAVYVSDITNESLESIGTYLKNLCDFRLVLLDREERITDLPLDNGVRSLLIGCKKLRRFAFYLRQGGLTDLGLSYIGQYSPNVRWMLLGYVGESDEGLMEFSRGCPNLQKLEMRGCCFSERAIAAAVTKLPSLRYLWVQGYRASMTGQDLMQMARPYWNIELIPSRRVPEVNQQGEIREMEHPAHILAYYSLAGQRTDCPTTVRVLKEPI

[5] = molecular target: T1, COI1/ASK1 complex (full-length …); assay: 3H-coronatine radioligand binding with COI1/ASK1 and synthetic peptide

Row | Molecule | binding result [5] | also measured
1 | full-length JAZ6 (from UniProt Q9C9E3 1-269) |  | KD of 3H-coronatine saturation binding to COI1/ASK1 in the presence of JAZ6 [1]: 48 nM; KD of 3H-coronatine saturation binding to the COI1/JAZ6 complex [1]: 68 nM
2 | B1 |  | KD of 3H-coronatine saturation binding to COI1/ASK1 in the presence of JAZ1 [2]: 68 nM; KD of 3H-coronatine saturation binding to the COI1/JAZ1 complex [2]: 48 nM
3 | B2 |  | Kd [3]: 108 nM
4 | B3 |  | binding result [4]: binds
5 | LPIARRASLHRFLEKRKDRV [JAZ1 + 4 extension] | binds | 
6 | B4 | binds | 
7 | AAAAARRASLHRFLEKRKDRV [JAZ1 + polyA extension] | no binding | 
8 | VERIARRASLHRFLEKRKDRV [JAZ1 + 5 extension from JAZ6] | no binding | 
9 | VERIARRASLHRFFAKRKDRV [JAZ6 + 5 extension] | no binding | 
10 | QQHQVVERIARRASLHRFFAKRKDRV [JAZ6 + 10 extension] | no binding | 
11 | YQKASMKRSLHSFLQKRSLRI [JAZ7 + 5 extension] | no binding | 
